Common to all, as to assay: enzyme inhibition
Test [1] has as its target T1, human plasma kallikrein (human, UniProt P03952 20-638).
The target of test [2] is T2, human factor Xa (human, UniProt P00742 41-179; P00742 235-488).
T2 chain 1: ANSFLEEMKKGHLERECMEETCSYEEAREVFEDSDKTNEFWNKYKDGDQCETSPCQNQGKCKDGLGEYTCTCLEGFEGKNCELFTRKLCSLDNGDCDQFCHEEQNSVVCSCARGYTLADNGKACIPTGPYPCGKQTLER
T2 chain 2: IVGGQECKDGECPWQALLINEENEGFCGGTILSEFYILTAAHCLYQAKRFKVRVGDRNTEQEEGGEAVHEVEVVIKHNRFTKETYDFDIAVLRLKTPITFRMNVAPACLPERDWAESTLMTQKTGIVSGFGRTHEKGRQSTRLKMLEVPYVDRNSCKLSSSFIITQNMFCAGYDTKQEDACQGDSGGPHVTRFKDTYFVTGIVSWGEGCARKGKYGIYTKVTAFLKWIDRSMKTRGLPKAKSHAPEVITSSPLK

Test [3] concerns the target T3, human factor XIIa (human, UniProt P00748 20-615, biotinylated with Biotin Ester (Zymed); sites not stated).
T3 chain: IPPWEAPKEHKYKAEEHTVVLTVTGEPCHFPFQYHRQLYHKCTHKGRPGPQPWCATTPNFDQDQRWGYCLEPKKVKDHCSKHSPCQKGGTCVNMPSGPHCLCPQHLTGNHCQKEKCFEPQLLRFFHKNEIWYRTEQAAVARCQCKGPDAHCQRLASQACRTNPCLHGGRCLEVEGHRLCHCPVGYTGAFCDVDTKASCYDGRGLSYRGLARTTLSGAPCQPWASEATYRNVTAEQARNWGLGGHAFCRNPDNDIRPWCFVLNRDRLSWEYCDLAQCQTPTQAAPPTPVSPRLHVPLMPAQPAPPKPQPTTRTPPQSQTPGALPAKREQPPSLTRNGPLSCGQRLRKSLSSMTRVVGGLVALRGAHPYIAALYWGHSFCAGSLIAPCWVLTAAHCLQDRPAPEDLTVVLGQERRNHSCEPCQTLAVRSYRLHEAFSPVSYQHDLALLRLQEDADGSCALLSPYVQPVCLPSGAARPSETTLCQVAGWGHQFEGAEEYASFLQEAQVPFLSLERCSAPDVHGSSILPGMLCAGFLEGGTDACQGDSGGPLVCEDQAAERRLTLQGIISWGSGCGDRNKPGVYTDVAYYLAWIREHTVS

Test [4] deals with T1, human plasma kallikrein. This is another data set of the same source.
Test [5] deals with T3, human factor XIIa.
In test [6] the target is T3, human factor XIIa.
Test [7] deals with T2, human factor Xa.
In test [8] the target is T1, human plasma kallikrein. The source holds these as a separate data set.
Test [9] concerns the target T3, human factor XIIa.
The target of test [10] is T2, human factor Xa.

The values that follow come from US6906033 (dated 2005).

Like-named read-outs stand apart in the source and are kept apart here.

T1 sequence (P03952 20-638): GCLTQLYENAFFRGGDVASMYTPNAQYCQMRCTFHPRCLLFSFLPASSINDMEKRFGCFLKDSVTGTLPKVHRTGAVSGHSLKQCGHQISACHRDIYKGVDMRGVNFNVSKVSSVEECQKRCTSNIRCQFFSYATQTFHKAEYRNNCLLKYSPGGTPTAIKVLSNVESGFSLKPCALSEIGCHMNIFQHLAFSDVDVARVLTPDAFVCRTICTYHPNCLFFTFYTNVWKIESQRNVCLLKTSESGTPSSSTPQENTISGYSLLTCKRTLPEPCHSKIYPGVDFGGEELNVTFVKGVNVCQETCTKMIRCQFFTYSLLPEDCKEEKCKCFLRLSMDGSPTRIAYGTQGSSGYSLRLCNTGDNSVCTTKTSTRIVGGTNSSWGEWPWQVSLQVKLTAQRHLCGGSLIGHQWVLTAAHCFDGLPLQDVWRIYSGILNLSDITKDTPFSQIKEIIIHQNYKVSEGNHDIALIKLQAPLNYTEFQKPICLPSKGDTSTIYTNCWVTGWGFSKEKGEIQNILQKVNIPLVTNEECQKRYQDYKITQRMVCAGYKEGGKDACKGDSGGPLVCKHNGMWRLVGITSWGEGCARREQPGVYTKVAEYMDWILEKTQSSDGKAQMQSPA

B1: TW122 (protein)
chain: EVCSEQAETGPCRAMISRWYFDVTEGKCAPFFYGGCGANRNNFDTEEYCMAVCGSAI
One may read the Ki as a dissociation constant, usually derived from enzyme kinetics or from competition with a known ligand. Low values mean tighter binding, high ones weaker binding. As for B1, the Ki in [1] came to 32 nM; in test [2], 581 nM.

B2: TW6151 (protein)
chain: EVVREVCSEQAETGPCRAMISRWYFDVTEGKCAPFFYGGCEGNRNNFDTEEYCMAVCGSAI
For the molecule B2, the Ki came out at 163 nM in [1], 1160 nM in test [3] and 954 nM in test [2].

B3: TW6173 (protein)
chain: EVVREVCSEQAETGPCRAAHSRWYFDVTEGKCAPFFYGGCGGNRNNFDTEEYCMAVCGSAI
With B3, the Ki in test [3] came to 1430 nM.

B4: TW6139 (protein)
chain: EVVREVCSEQAETGPCRAMISRWYFDVTEGKCAPFFYGGCHGNRNNFDTEEYCMAVCGSAI
For the molecule B4, the figures for the inhibition constant Ki in [1], in test [3] and in test [2] were 19 nM, 152 nM and 78 nM, respectively.

B5: DD112 (protein)
chain: EVVREVCSEQAETGPCRAVISRWYFDVTEGKCAPFFYGGCGGNRNNFDTEEYCMAVCGSAI
In the case of B5, the Ki in test [4] was determined as 6.8 nM; in test [5], 998 nM.

B6: TW6175 (protein)
chain: EVVREVCSEQAETGPCRALIFRWYFDVTEGKCAPFFYGGCGGNRNNFDTEEYCMAVCGSAI
Regarding B6, the inhibitory constant (Ki) was found to be 35 nM in test [6] and 56 nM in [7].

B7: DD129 (protein)
chain: EVVREVCSEQAETGPCRALFSRWYFDVTEGKCAPFFYGGCGGNRNNFDTEEYCMAVCGSAI
For B7, the results for the Ki in test [1], in test [3] and in test [2] were 3.6 nM, 1860 nM and 6 nM, respectively.

B8: TW6204 (protein)
chain: EVVREVCSEQAETGPCRAAISAWYFDVTEGKCAPFFYGGCGGNRNNFDTEEYCMAVCGSAI
B8: the figures for the Ki in test [6] and in test [7] were 147 nM and 87 nM, respectively.

B9: TW6183 (protein)
chain: EVVREVCSEQAETGPCRAMHFRWYFDVTEGKCAPFFYGGCGGNRNNFDTEEYCMAVCGSAI
Take B9: the Ki was determined as 12400 nM in [6] and 159 nM in [7].

B10: TW6147 (protein)
chain: EVVREVCSEQAETGPCRAMISRWYFDVTEGKCAPFFYGGCAGNRNNFDTEEYCMAVCGSAI
For B10, the Ki in test [8] came out at 35 nM; in [9], 1090 nM; in test [10], 179 nM.

B11: BG032 (protein)
chain: EVVREVCSEQAESGPCRAMISRWYFDVTEGKCAPFFYGGCGGNRNNFDTEEYCMAVCGSAI
Take B11: the Ki is 49 nM in test [4] and 731 nM in test [5].

B12: TW6208 (protein)
chain: EVVREVCSEQAETGPCRGMISRWYFDVTEGKCAPFFYGGCGGNRNNFDTEEYCMAVCGSAI
Regarding B12, in test [5], the affinity corresponds to a Ki of 369 nM.

B13: TW6184 (protein)
chain: EVVREVCSEQAETGPCRAMHYRWYFDVTEGKCAPFFYGGCGGNRNNFDTEEYCMAVCGSAI
Consider B13, for which the values for the inhibitory constant (Ki) in test [6] and in [7] were 14000 nM and 214 nM, respectively.

B14: TW6174 (protein)
chain: EVVREVCSEQAETGPCRALHSRWYFDVTEGKCAPFFYGGCGGNRNNFDTEEYCMAVCGSAI
Turning to B14, the Ki in [3] was found to be 2800 nM.

B15: TW6205 (protein)
chain: EVVREVCSEQAETGPCRALISAWYFDVTEGKCAPFFYGGCGGNRNNFDTEEYCMAVCGSAI
For the molecule B15, the values for the Ki in test [6] and in [7] were 195 nM and 29 nM, respectively.

B16: TW6153 (protein)
chain: EVVREVCSEQAETGPCRAMISRWYFDVTEGKCAPFFYGGCIGNRNNFDTEEYCMAVCGSAI
Turning to B16, the inhibitory constant (Ki) in test [1] amounted to 11.2 nM; in test [3] it was 65 nM; in [2], 36 nM.

B17: TW6138 (protein)
chain: EVVREVCSEQAETGPCRAMISRWYFDVTEGKCAPFFYGGCKGNRNNFDTEEYCMAVCGSAI
As to B17, the Ki worked out at 18 nM in test [8], 921 nM in test [9] and 309 nM in [10].

B18: BG031 (protein)
chain: EVVREVCSEQAEVGPCRAMISRWYFDVTEGKCAPFFYGGCGGNRNNFDTEEYCMAVCGSAI
Take B18: the figures for the Ki in [4] and in test [5] were 34 nM and 498 nM, respectively.

B19: TW6142 (protein)
chain: EVVREVCSEQAETGPCRAMISRWYFDVTEGKCAPFVYGGCGGNRNNFDTEEYCMAVCGSAI
Consider B19, for which the figures for the Ki in test [8], in test [9] and in test [10] were 18 nM, 7970 nM and 225 nM, respectively.

B20: TW6157 (protein)
chain: EVVREVCSEQAETGPCRAMISRWYFDVTEGKCAPFFYGGCSGNRNNFDTEEYCMAVCGSAI
As to B20, the inhibition constant Ki in [8] stood at 40 nM; in test [9], 511 nM; in [10] it was 168 nM.

B21: DD101 (protein)
chain: EVVREVCSEQAETGPCRAMISRWYFDVTEGKCAPFFYGGCDGNRNNFDTEEYCMAVCGSAI
Regarding B21, the Ki in test [1] was found to be 64 nM; in test [3] it was 924 nM.

B22: TW6159 (protein)
chain: EVVREVCSEQAETGPCRAMISRWYFDVTEGKCAPFFYGGCVGNRNNFDTEEYCMAVCGSAI
For B22, the Ki in test [1] was 17 nM; in [2], 64 nM.

B23: TW6209 (protein)
chain: EVVREVCSEQAETGPCRAMISHWYFDVTEGKCAPFFYGGCGGNRNNFDTEEYCMAVCGSAI
Consider B23, for which the inhibition constant (Ki) in test [8] is 81 nM; in test [9], 184 nM; in test [10], 613 nM.

B24: BG002 (protein)
chain: EVVREVCSEQAETGPCRALLSRWYFDVTEGKCAPFFYGGCGGNRNNFDTEEYCMAVCGSAI
Take B24: the values for the inhibition constant Ki in test [1], in [3] and in test [2] were 0.98 nM, 403 nM and 60 nM, respectively.

B25: TW6154 (protein)
chain: EVVREVCSEQAETGPCRAMISRWYFDVTEGKCAPFFYGGCLGNRNNFDTEEYCMAVCGSAI
Consider B25, for which the Ki in test [8] is 11 nM; in test [9], 915 nM; in test [10] it was 39 nM.

B26: TW6161 (protein)
chain: EVVREVCSEQAETGPCRAMISRWYFDVTEGKCAPFFYGGCYGNRNNFDTEEYCMAVCGSAI
In the case of B26, the inhibition constant Ki in [1] is 7.5 nM; in test [3], 1510 nM; in [2], 8.7 nM.

B27: TW6178 (protein)
chain: EVVREVCSEQAETGPCRAMISRWYFDVTEGKCAPFFYGGCGRNRNNFDTEEYCMAVCGSAI
Take B27: the Ki amounted to 16 nM in test [1] and 444 nM in test [3].

B28: TW6179 (protein)
chain: EVVREVCSEQAETGPCRAGISRWYFDVTEGKCAPFFYGGCGGNRNNFDTEEYCMAVCGSAI
For B28, the results for the Ki in test [4] and in test [5] were 78 nM and 368 nM, respectively.
